This note sets out measurements from publication doi:10.1101/2023.01.08.523168 (bioRxiv, 2023).

Where two headings read alike, the source gives them in different places. No end group written: not given here. *: point of attachment. Oxazole(5-CO) = O=C(c1cnco1)*; Crotonyl(E) = C/C=C/C(=O)*; 2Furoyl = O=C(c1ccco1)*; Butyryl = CCCC(=O)*

In test [1] the target is T1, 6x His-tagged ENL YEATS domain (human, UniProt Q03111 1-138).
T1 sequence (looked up): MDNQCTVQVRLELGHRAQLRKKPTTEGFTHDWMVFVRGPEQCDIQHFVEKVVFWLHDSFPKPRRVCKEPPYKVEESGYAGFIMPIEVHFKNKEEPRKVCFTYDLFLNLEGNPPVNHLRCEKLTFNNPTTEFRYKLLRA
Kind of test: AlphaScreen or HTRF. A general note: In Alpha technology, singlet oxygen from a donor bead excites a nearby acceptor bead.

The target of test [2] is T1, 6x His-tagged ENL YEATS domain. Kind of test: BLI.
Test [3] addresses T2, AF9 YEATS domain (human, UniProt P42568 1-138).
T2 sequence (looked up): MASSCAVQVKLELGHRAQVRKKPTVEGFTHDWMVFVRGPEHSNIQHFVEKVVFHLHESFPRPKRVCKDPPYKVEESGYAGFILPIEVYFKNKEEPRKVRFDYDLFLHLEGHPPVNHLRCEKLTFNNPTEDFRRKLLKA
The test can be described thus: BLI.

The target of test [4] is T2, AF9 YEATS domain. The test can be described thus: AlphaScreen or HTRF.
Test [5] concerns the target T3, NanoLuc luciferase (NLuc)-ENL YEATS fusion protein (human, UniProt Q03111 1-148).
T3 sequence (looked up): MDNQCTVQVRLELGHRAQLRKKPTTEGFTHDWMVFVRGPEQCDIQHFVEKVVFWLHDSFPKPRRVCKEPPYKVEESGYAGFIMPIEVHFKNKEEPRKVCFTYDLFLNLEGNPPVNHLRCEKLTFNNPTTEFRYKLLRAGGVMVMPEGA
Kind of test: FRET or BRET. (In general: BRET reads energy transfer from a luciferase to a nearby fluorophore.)

Test [6] has as its target T3, NanoLuc luciferase (NLuc)-ENL YEATS …. Kind of test: FRET or BRET. The source holds these as a separate data set.
For test [7] the target is unchanged. The test can be described thus: FRET or BRET. The source holds these as a separate data set.

B1: ENL-S1f (peptide)
peptide: YDVYCYK(2Furoyl)-NH2
By IC50 is commonly meant the concentration needed to halve the response being measured. One may read the Kd as the free concentration of one partner at which half of the binding sites on the other are occupied at equilibrium, for simple one-to-one binding. In the case of B1, the IC50 in test [1] was found to be 22 nM. Also, the Kd stood at 10.3 nM in test [2] and 144 nM with AF9 YEATS domain [3]. The “fold lower potency (IC50) toward AF9 YEATS than toward ENL YEATS” value (“fold lower potency” for short) with AF9 YEATS domain [4] was found to be 7.7 fold.

B2: ENL-S1c (peptide)
peptide: YDVYCYK(Crotonyl(E))-NH2
Consider B2, for which the midpoint of inhibition in test [1], the IC50, lay at 20 nM. The Kd in test [2] was 16.2 nM; with AF9 YEATS domain [3] it was 147 nM. For the same molecule, the “fold lower potency” value with AF9 YEATS domain [4] is 18 fold.

B3: ENL-S2 (peptide)
peptide: WWIIEK(Butyryl)G-NH2
Usually koff stands for the rate constant with which the complex falls apart. Lower therefore signals a long-lived complex. Usually kon stands for the second-order rate constant of association. Lower therefore signals slower complex formation. In the case of B3, the midpoint of inhibition in test [1], the IC50, lay at 1220 nM. Also, in test [2], the Kd was 881 nM, the dissociation rate constant (koff) was found to be 0.00554 s⁻¹ and the kon amounted to 6290 M⁻¹ s⁻¹.

B4: ENL-S1 (peptide)
peptide: YDVYCYK(Butyryl)-NH2
For the molecule B4, it took 63 nM to reach half-maximal inhibition in test [1] (IC50). In test [2], this molecule gave a dissociation constant Kd of 36.3 nM, a koff of 0.00226 s⁻¹ and a kon of 62300 M⁻¹ s⁻¹. In addition, the Kd with AF9 YEATS domain [3] is 205 nM. Further, the “fold lower potency” value with AF9 YEATS domain [4] turned out to be 4 fold.

B5: tENL-S1f (peptide)
peptide: Ac-VYCYK(2Furoyl)-NH2
Regarding B5, the IC50 in test [5] is 4200 ± 1100 nM; in test [6] it was 4100 ± 1100 nM; in test [7], 6400 ± 1600 nM. For the same molecule, in the test with AF9 YEATS domain [3], the “fold selectivity for ENL YEATS over AF9” value was 12 fold.

B6: ENL-S1o (peptide)
peptide: YDVYCYK(Oxazole(5-CO))-NH2
In test [1], B6 gave an IC50 of 10 nM. For the same molecule, the values for the dissociation constant (Kd) (in test [2]; with AF9 YEATS domain [3]) were 2 nM and 55.1 nM, respectively. In addition, in the test with AF9 YEATS domain [4], the “fold lower potency” value is 23 fold.
